Source: US20150344570A1 (published 2015)

T1: FcγRIIb (human, UniProt P31994 43-217)
T1 construct: extracellular domain; Soluble extracellular domain with C-terminal His tag, used as analyte in Biacore; also called FcgRIIb; 2b; not shown: His tag attached to the C terminus
T1 sequence (looked up): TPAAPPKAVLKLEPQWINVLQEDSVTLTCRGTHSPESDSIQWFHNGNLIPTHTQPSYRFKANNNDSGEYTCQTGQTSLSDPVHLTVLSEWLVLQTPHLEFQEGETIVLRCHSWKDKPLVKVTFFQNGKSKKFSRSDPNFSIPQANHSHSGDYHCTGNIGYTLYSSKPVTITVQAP


How the values were obtained:
[1] = molecular target: T2, FcγRIa (human, UniProt P12314 16-292); test: SPR (Biacore), antibody captured, FcγR as analyte; relative to GpH7-A5/GpH7-B3/GpL16-k0 = 100
T2 construct: extracellular domain; Soluble extracellular domain with C-terminal His tag, used as analyte in Biacore; also called FcgRI; 1a; not shown: His tag attached to the C terminus
T2 sequence (P12314 16-292): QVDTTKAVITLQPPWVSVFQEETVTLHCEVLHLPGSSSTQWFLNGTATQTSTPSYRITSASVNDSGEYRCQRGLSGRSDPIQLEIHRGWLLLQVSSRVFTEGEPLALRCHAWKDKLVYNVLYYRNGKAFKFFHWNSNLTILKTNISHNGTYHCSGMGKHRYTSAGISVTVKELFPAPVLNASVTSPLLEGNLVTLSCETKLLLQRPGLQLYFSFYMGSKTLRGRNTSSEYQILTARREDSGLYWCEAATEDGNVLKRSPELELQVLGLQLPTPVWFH
Description: (§1) The heterodimerized antibodies He Abs in which one of the H chains was introduced with an alteration were assayed for their binding activities to each activating FcγR and inhibitory FcγR according to the method described in Example 4. […] The activating FcγRs in FIGS. 26, 27, 28, and 29 are FcγRIa, FcγRIIa (R), FcγRIIa (H), and FcγRIIIa, respectively.
(§2) Analysis of interaction between objective antibody and the FcγR was carried out using Biacore T100 (GE Healthcare). HBS-EP+ (GE Healthcare) was used as the running buffer, and the measurement temperature was set to 25° C. Chips produced by immobilizing the antigen peptide by the amine coupling method to a Series S Sencor Chip CM5 (GE Healthcare), or alternatively, chips produced by allowing preliminarily biotinylated antigen peptides to interact with and immobilize onto a Series S Sensor Chip SA (certified) (GE Healthcare) were used. Antibodies of interest were captured onto an antigen peptide-immobilized chip, and allowed to interact to each FcγR diluted with running buffer. To regenerate and repeatedly use the chip, the antibodies captured on the chip were washed off by reacting 10 mM glycine-HCl, pH 1.5.

[2] = molecular target: T1, FcγRIIb; test: as above
Description: as §1, §2

Row | Binder | He/Con_1a [1] | He/Con_2b [2]
1 | GpH7-A5/GpH7-B3 variant N325_03V/GpL16-k0 (antibody, human IgG1, kappa, Heterodimerized anti-glypican-3 IgG1; alteration in the GpH7-B3 chain only; also called He Ab) heavy 1: not shown heavy 2: not shown light: DIVMTQSPLSLPVTPGEPASISCQASESLVHSNRNTYLHWYLQKPGQSPQLLIYKVSNRFSGVPDRFSGSGSGTDFTLKISRVEAEDVGVYYCSQNTHVPPTFGQGTKVEIERTVAAPSVFIFPPSDEQLKSGTASVVCLLNNFYPREAKVQWKVDNALQSGNSQESVTEQDSKDSTYSLSSTLTLSKADYEKHKVYACEVTHQGLSSPVTKSFNRGEC | 95.6 % of control (=100) | 111 % of control (=100)
2 | GpH7-A5/GpH7-B3 variant N325_06M/GpL16-k0 (antibody, human IgG1, kappa, Heterodimerized anti-glypican-3 IgG1; alteration in the GpH7-B3 chain only; also called He Ab) heavy 1: not shown heavy 2: not shown light: DIVMTQSPLSLPVTPGEPASISCQASESLVHSNRNTYLHWYLQKPGQSPQLLIYKVSNRFSGVPDRFSGSGSGTDFTLKISRVEAEDVGVYYCSQNTHVPPTFGQGTKVEIERTVAAPSVFIFPPSDEQLKSGTASVVCLLNNFYPREAKVQWKVDNALQSGNSQESVTEQDSKDSTYSLSSTLTLSKADYEKHKVYACEVTHQGLSSPVTKSFNRGEC | 97.6 % of control (=100) | 217 % of control (=100)
3 | GpH7-A5/GpH7-B3 variant N325_09D/GpL16-k0 (antibody, human IgG1, kappa, Heterodimerized anti-glypican-3 IgG1; alteration in the GpH7-B3 chain only; also called He Ab) heavy 1: not shown heavy 2: not shown light: DIVMTQSPLSLPVTPGEPASISCQASESLVHSNRNTYLHWYLQKPGQSPQLLIYKVSNRFSGVPDRFSGSGSGTDFTLKISRVEAEDVGVYYCSQNTHVPPTFGQGTKVEIERTVAAPSVFIFPPSDEQLKSGTASVVCLLNNFYPREAKVQWKVDNALQSGNSQESVTEQDSKDSTYSLSSTLTLSKADYEKHKVYACEVTHQGLSSPVTKSFNRGEC | 99.9 % of control (=100) | 124 % of control (=100)
4 | GpH7-A5/GpH7-B3 variant N325_07I/GpL16-k0 (antibody, human IgG1, kappa, Heterodimerized anti-glypican-3 IgG1; alteration in the GpH7-B3 chain only; also called He Ab) heavy 1: not shown heavy 2: not shown light: DIVMTQSPLSLPVTPGEPASISCQASESLVHSNRNTYLHWYLQKPGQSPQLLIYKVSNRFSGVPDRFSGSGSGTDFTLKISRVEAEDVGVYYCSQNTHVPPTFGQGTKVEIERTVAAPSVFIFPPSDEQLKSGTASVVCLLNNFYPREAKVQWKVDNALQSGNSQESVTEQDSKDSTYSLSSTLTLSKADYEKHKVYACEVTHQGLSSPVTKSFNRGEC | 94.8 % of control (=100) | 171 % of control (=100)

Continued, values first:

Row | He/Con_1a [1] | He/Con_2b [2] | Binder
5 | 97.6 % of control (=100) | 110 % of control (=100) | GpH7-A5/GpH7-B3 variant P238_19Q/GpL16-k0 (antibody, human IgG1, kappa, Heterodimerized anti-glypican-3 IgG1; alteration in the GpH7-B3 chain only; also called He Ab) heavy 1: not shown heavy 2: not shown light: DIVMTQSPLSLPVTPGEPASISCQASESLVHSNRNTYLHWYLQKPGQSPQLLIYKVSNRFSGVPDRFSGSGSGTDFTLKISRVEAEDVGVYYCSQNTHVPPTFGQGTKVEIERTVAAPSVFIFPPSDEQLKSGTASVVCLLNNFYPREAKVQWKVDNALQSGNSQESVTEQDSKDSTYSLSSTLTLSKADYEKHKVYACEVTHQGLSSPVTKSFNRGEC
6 | 96.8 % of control (=100) | 177 % of control (=100) | GpH7-A5/GpH7-B3 variant N325_13S/GpL16-k0 (antibody, human IgG1, kappa, Heterodimerized anti-glypican-3 IgG1; alteration in the GpH7-B3 chain only; also called He Ab) heavy 1: not shown heavy 2: not shown light: DIVMTQSPLSLPVTPGEPASISCQASESLVHSNRNTYLHWYLQKPGQSPQLLIYKVSNRFSGVPDRFSGSGSGTDFTLKISRVEAEDVGVYYCSQNTHVPPTFGQGTKVEIERTVAAPSVFIFPPSDEQLKSGTASVVCLLNNFYPREAKVQWKVDNALQSGNSQESVTEQDSKDSTYSLSSTLTLSKADYEKHKVYACEVTHQGLSSPVTKSFNRGEC
7 | 96 % of control (=100) | 115 % of control (=100) | GpH7-A5/GpH7-B3 variant P238_16H/GpL16-k0 (antibody, human IgG1, kappa, Heterodimerized anti-glypican-3 IgG1; alteration in the GpH7-B3 chain only; also called He Ab) heavy 1: not shown heavy 2: not shown light: DIVMTQSPLSLPVTPGEPASISCQASESLVHSNRNTYLHWYLQKPGQSPQLLIYKVSNRFSGVPDRFSGSGSGTDFTLKISRVEAEDVGVYYCSQNTHVPPTFGQGTKVEIERTVAAPSVFIFPPSDEQLKSGTASVVCLLNNFYPREAKVQWKVDNALQSGNSQESVTEQDSKDSTYSLSSTLTLSKADYEKHKVYACEVTHQGLSSPVTKSFNRGEC
8 | 95.5 % of control (=100) | 110 % of control (=100) | GpH7-A5/GpH7-B3 variant P331_04F/GpL16-k0 (antibody, human IgG1, kappa, Heterodimerized anti-glypican-3 IgG1; alteration in the GpH7-B3 chain only; also called He Ab) heavy 1: not shown heavy 2: not shown light: DIVMTQSPLSLPVTPGEPASISCQASESLVHSNRNTYLHWYLQKPGQSPQLLIYKVSNRFSGVPDRFSGSGSGTDFTLKISRVEAEDVGVYYCSQNTHVPPTFGQGTKVEIERTVAAPSVFIFPPSDEQLKSGTASVVCLLNNFYPREAKVQWKVDNALQSGNSQESVTEQDSKDSTYSLSSTLTLSKADYEKHKVYACEVTHQGLSSPVTKSFNRGEC
9 | 92 % of control (=100) | 119 % of control (=100) | GpH7-A5/GpH7-B3 variant P331_03V/GpL16-k0 (antibody, human IgG1, kappa, Heterodimerized anti-glypican-3 IgG1; alteration in the GpH7-B3 chain only; also called He Ab) heavy 1: not shown heavy 2: not shown light: DIVMTQSPLSLPVTPGEPASISCQASESLVHSNRNTYLHWYLQKPGQSPQLLIYKVSNRFSGVPDRFSGSGSGTDFTLKISRVEAEDVGVYYCSQNTHVPPTFGQGTKVEIERTVAAPSVFIFPPSDEQLKSGTASVVCLLNNFYPREAKVQWKVDNALQSGNSQESVTEQDSKDSTYSLSSTLTLSKADYEKHKVYACEVTHQGLSSPVTKSFNRGEC
